According to PMC8894376 (Nature Communications, 2022):

Target: Recombinant full-length human α-synuclein (1–140) (human, UniProt P37840 1-140)
Assay: turbidity of phase separation (absorbance at 350 nm)
Details: both partners purified

B1: PrP 23–144 (Y145Stop) (domain or fragment)
chain: KKRPKPGGWNTGGSRYPGQGSPGGNRYPPQGGGGWGQPHGGGWGQPHGGGWGQPHGGGWGQPHGGGWGQGGGTHSQWNKPSKPKTNMKHMAGAAAAGAVVGGLGGYMLGSAMSRPIIHFGSD
binding result: binds
